Results: patent publication US20180326084A1 (Genmab, published 2018)

What was measured:
human AXL (full length) [1] = target: T1, human AXL (full length) (human, UniProt P30530 26-894); assay: FMAT screening assay, HEK-293F cells transiently expressing human AXL
T1 construct: also called TH1021-AXL; TH1021-hAXL

AXLECDHis = target: T2, AXLECDHis (human, UniProt P30530 26-447); assay: BLI (Octet), IgG on anti-human Fc sensor, AXLECDHis analyte
T2 construct: theoretical mass 46 kDa used; also called extracellular domain (ECD) of human AXL (aa 1-447) with a C-terminal His tag; soluble recombinant AXL extracellular domain

human AXL (full length) [2] = target: T1, human AXL (full length); assay: flow cytometry, HEK293T cells with full-length human AXL
[3] = target: T3, human AXL with a cynomolgus monkey extracellular domain (ECD) (cynomolgus monkey (Macaca …, UniProt P30530 26-894)); assay: flow cytometry, HEK293T cells with human AXL carrying cynomolgus ECD
T3 construct: Chimera on transfected HEK293T cells; also called cynomolgus AXL; cynomolgus AXL-ECD
T3 chain: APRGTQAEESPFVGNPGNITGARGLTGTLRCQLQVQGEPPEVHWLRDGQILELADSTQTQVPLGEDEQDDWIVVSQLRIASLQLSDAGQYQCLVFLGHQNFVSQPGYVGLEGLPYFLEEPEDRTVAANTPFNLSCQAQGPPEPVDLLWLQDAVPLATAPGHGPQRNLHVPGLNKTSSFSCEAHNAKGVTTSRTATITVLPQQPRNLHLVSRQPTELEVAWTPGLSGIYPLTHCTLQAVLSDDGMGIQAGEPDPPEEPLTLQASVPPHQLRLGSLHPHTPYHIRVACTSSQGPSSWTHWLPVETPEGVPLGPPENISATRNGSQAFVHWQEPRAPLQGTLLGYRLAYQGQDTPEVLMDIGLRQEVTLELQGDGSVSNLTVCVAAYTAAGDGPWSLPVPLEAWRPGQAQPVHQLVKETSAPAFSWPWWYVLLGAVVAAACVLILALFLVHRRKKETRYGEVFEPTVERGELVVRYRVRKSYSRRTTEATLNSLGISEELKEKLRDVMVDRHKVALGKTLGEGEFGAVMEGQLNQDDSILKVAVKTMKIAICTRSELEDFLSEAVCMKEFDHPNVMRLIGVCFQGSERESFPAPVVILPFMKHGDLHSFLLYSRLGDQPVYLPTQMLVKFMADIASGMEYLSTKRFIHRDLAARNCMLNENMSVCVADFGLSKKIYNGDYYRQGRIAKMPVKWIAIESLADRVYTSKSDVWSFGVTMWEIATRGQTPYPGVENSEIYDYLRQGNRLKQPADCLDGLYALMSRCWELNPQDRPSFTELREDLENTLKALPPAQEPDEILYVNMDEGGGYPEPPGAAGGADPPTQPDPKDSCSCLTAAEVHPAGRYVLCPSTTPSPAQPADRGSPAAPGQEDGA

B1: IgG1-AXL-613-08 (antibody, V domains shown)
VH: QVQLVQSGAEVKKPGSSVKVSCKASGGTFSSYAINWMRQAPGQGLEWMGRIIPIFGIVNYAQKFQGRVTLTADKSTSTAYMELSSLRSEDTAVYYCARRGNYYGSGSPDVFDIWGQGTMVTVSS
VL: EIVLTQSPATLSLSPGERATLSCRASQSVSSYLAWYQQKPGQAPRLLIYDASNRATGIPARFSGSGSGTDFTLTISSLEPEDFAVYYCQQRSNWLTFGGGTKVEIK
- EC50 (human AXL (full length) [1]): 0.0242 µg/mL
- Maximal binding (Arbitrary units) (human AXL (full length) [1]): 2210 arbitrary units

B2: IgG1-AXL-140 (antibody, V domains shown)
VH: EVQLLESGGGLVQPGGSLRLSCAASGFTFSSYAMTWVRQAPGKGLEWVSAISISGASTFYADSVKGRFTISRDNSKNTLSLQMNSLRAEDTAVYFCRGYSGYVYDAFDIWGQGTMVTVSS
VL: DIQMTQSPSSLSASVGDRVTITCRASQGISNWLAWYQQKPEKAPKSLIYAASSLQSGVPSRFSGSGSGTDFTLTISSLQPEDFATYYCQQYNSYPLTFGGGTKVEIK
- EC50 (human AXL (full length) [1]): 0.0026 µg/mL
- Maximal binding (Arbitrary units) (human AXL (full length) [1]): 2890 arbitrary units

B3: IgG1-AXL-187 (antibody, V domains shown)
VH: QVPLQQWGAGLLKPSETLSLTCAVYGGSFSGYHWSWIRQPPGKGLEWIGEISHSGRTNYNPSLKSRVTISIDTSKNQFSLKLSSVTAADTAVYYCASFITMIRGTIITHFDYWGQGTLVTVSS
VL: DIQMTQSPSSLSASVGDRVTITCRASQGISSWLAWYQQKPEKAPKSLIYAASSLQSGVPSRFSGSGSGTDFTLTISSLQPEDFATYYCQQYHSYPYTFGQGTKLEIK
- EC50 (human AXL (full length) [1]): 0.0065 µg/mL
- Maximal binding (Arbitrary units) (human AXL (full length) [1]): 2560 arbitrary units

B4: IgG1-AXL-726-M101L (antibody, V domains shown)
VH: QVQLQQWGAGLLKPSETLSLTCAIDGGSFSGYYWSWIRQPPGKGLEWIGEISHSGRTNYNPSLKSRVTISIDTSKNQFSLKLSSVAAADTAVYYCARFITLIRGAIITHFDYWGQGALVTVSS
VL: DIQMTQSPSSLSASVGDRVTITCRASQGISSWLAWYQQKPEKAPKSLIYAASSLQSGVPSRFSGSGSGTDFTLTISSLQPEDFATYYCQQYHSYPYTFGQGTKLEIK
notes: Expressed as human IgG1,κ
- Kd (AXLECDHis): 0.3 nM
- koff (AXLECDHis): 6.9e-05 s⁻¹
- kon (AXLECDHis): 210000 M⁻¹ s⁻¹
- EC50 (human AXL (full length) [2]): 0.184 µg/mL
- EC50 [3]: 0.25 µg/mL
